From US20230242675A1 (SHANGHAI EPIMAB BIOTHERAPEUTICS, published 2023) come the findings set out here.

The target of assay [1] is T1, human PD-L1/His fusion protein (human, UniProt Q9NZQ7 19-239). Put plainly: ELISA, coated human PD-L1 protein, anti-human Fc detection. The method, then:
(§1) The ability of an antibody to bind human or cynomolgus (cyno) PD-L1 (binding activity) was determined by ELISA. ELISA plates were incubated overnight at 4° C. with 50 μl of the human or cyno PD-L1 protein described above diluted in PBS buffer, pH 7.4, at 1 μg/ml. Plates were washed four times in washing buffer (PBS containing 0.05% Tween 20) and blocked for 1 hour at 37° C. with 200 μl per well of blocking buffer (1% BSA in PBS containing 0.05% Tween 20). After blocking buffer was removed, diluted purified antibodies (200 nM and 1:5 serial dilutions to provide 7 concentrations of each antibody) were added to the wells at 100 μl per well and incubated at 37° C. for 1 hour. The wells were washed four times with washing buffer, and anti-human IgG (Fc-specific) HRP-conjugated antibody (Sigma), diluted 1:10,000, was added to the wells at 100 μl per well. The plates were incubated for 1 hour at 37° C. and washed four times in washing buffer. 100 μl of tetramethylbenzidine (TMB) chromogenic solution were added per well. Following color development, the reaction was stopped with 1 N HCl, and absorbance at 450 nm was measured on a VARIOSKAN™ LUX multimode microplate reader (ThermoFisher Scientific, Vataa, Finland). The data were processed by GraphPad software, and EC50 values were calculated. The EC50 for binding activity according to this ELSA is the concentration at which an antibody induces a response halfway between the baseline and maximum and indicates the binding ability of the antibody.

For assay [2], the target named is T1, human PD-L1/His fusion protein. Put plainly: BLI Octet RED96, antibody on AHC sensor, single conc. PD-L1/His; test group 1. The method, then:
(§2) All 15 antibodies in Table 13 were assayed for and ranked by dissociation rate constant (koff). […] Briefly, antibodies were characterized for affinities and binding kinetics by Octet®RED96 biolayer interferometry (Pall ForteBio LLC). Antibodies were captured by Anti-hIgG Fc Capture (AHC) Biosensors (Pall) at a concentration of 100 nM for 30 seconds. Sensors were then dipped into running buffer (1×pH 7.2 PBS, 0.05% Tween 20, 0.1% BSA) for 60 seconds to check the baseline. Binding was measured by dipping sensors into a single concentration of recombinant human PD-L1/His fusion protein (Novoprotein). Dissociation was followed by dipping sensors into running buffer for 1200 seconds. The association and dissociation curves were fitted to a 1:1 Langmuir binding model using ForteBio Data Analysis software (Pall). […] The off-rate ratio serves as a data normalization. Accordingly, in each test group, the off-rate ratios of the humanized antibodies can be compared with that of the chimeric antibody, and the off-rate ratios of each of the humanized antibodies can be compared to one another within all test groups.

Assay [3] shares this target. The assay is described as follows: BLI Octet RED96, antibody on AHC sensor, single conc. PD-L1/His; test group 2. The method, then:
as §2

For assay [4] the target is unchanged. Put plainly: BLI off-rate; test group 2 (reference itself). Here is the method:
as §2

The target is the same in assay [5]. The assay is described as follows: BLI off-rate; test group 3 (reference itself). Here is the method: as §2
Assay [6] addresses T2, cynomolgus (cyno) PD-L1/His fusion protein (cynomolgus, UniProt G7PSE7 19-239).
T2 construct: also called cynomolgus PD-L1; not shown: His tag
The assay is described as follows: BLI Octet RED96, cyno PD-L1; cyno PD-L1, not human.

Assay [7] has as its target T2, cynomolgus (cyno) PD-L1/His fusion …. The assay is described as follows: ELISA, coated cyno PD-L1 protein. The method, then: as §1
The target of assay [8] is T3, human PD-L1 on the cell surface (CHO-K1 cells stably expressing human PD-L1) (human, UniProt Q9NZQ7 19-290).
T3 construct: whole, on cells; Also used here for PD-L1 on the monocyte-derived dendritic cells of the MLR assay (functional rows); also called CHO-K1/PD-L1; CHOK1-PD-L1
Put plainly: FACS on CHO-K1/hPD-L1 cells. Here is the method: The ability of the purified antibodies to bind to cell membrane human PD-L1 was determined by FACS analysis. CHO-K1 cells stably expressing human PD-L1 (CHO-K1/hPD-L1 cells) were resuspended in PBS containing 2% FBS (FACS buffer) and seeded at 1×10⁵ cells/well into 96-well round-bottomed plates (Corning; Cat. No. 3799). […] The assay plate was then read on a flow cytometer. The data were processed by GraphPad software, and EC50 values were calculated. The EC50 for binding activity according to this FACS analysis is the concentration at which of an antibody induces a response halfway between the baseline and maximum and reflects the binding ability of the antibody.

The target in assay [9] is human PD-L1/Fc Fusion Protein (human). The assay is described as follows: RBA ELISA: coated PD-L1/Fc, competitor biotinylated human PD-1. Here is the method: ELISA plates were coated with 100 μl of 1 μg/ml of human PD-L1/Fc in PBS and incubated overnight at 4° C. Plates were washed four times in washing buffer (PBS containing 0.05% Tween 20) and blocked for 1 hour at 37° C. with 200 μl per well of blocking buffer (1% BSA in PBS containing 0.05% Tween 20). […] A human IgG was included as negative control. The signal was developed by adding streptavidin-HRP (Cat. No. S2468, Sigma) (100 μl/well at 1:5000 dilution) and incubating for 40 minutes at 37° C., followed by washing four times in washing buffer. Then, 100 μl of TMB solution were added per well. Following color development, the reaction was stopped with 1 N HCl, and absorbance at 450 nm was measured. The data were processed by GraphPad software, and IC50 values were calculated. […] The signal reduction induced by antibody samples was normalized to inhibition percentage, where the negative control was 0% inhibition, and the absolute value of signal reduction of each antibody divided by the signal of the negative control equals the percent inhibition by the antibody.

In assay [10] the target is T1, human PD-L1/His fusion protein. The assay is described as follows: BLI Octet RED96, antibody on AHC sensor, single conc. PD-L1/His; test group 3. The method, then: as §2
For assay [11] the target is unchanged. Put plainly: BLI Octet RED96, antibody on AHC sensor, PD-L1/His in solution. Here is the method: Binding of antibodies to PD-L1 was also assessed using biolayer interferometry (BLI) using an Octet® RED96 sensor device (Pall ForteBio LLC). Antibodies were captured by anti-hIgG Fc capture (AHC) Biosensors (Pall) at a concentration of 100 nM for 30 seconds. Sensors were then dipped into running buffer (1×pH7.2 PBS, 0.05% Tween 20, 0.1% BSA) for 60 seconds to check the baseline. Binding was measured by dipping sensors into a series of diluted concentrations of recombinant human PD-L1/His fusion protein. Dissociation was followed by dipping sensors into running buffer for 1200 seconds. The association and dissociation curves were fitted to a 1:1 Langmuir binding model using ForteBio Data Analysis software (Pall). The equilibrium dissociation constant KD (molarity) of the reaction between antibodies and related target proteins was then calculated from the kinetic rate constants using the formula KD=koff/kon.

The target is the same in assay [12]. The assay is described as follows: BLI off-rate; test group 1 (reference itself). The method, then:
as §2

T1 sequence (Q9NZQ7 19-239 limits assumed): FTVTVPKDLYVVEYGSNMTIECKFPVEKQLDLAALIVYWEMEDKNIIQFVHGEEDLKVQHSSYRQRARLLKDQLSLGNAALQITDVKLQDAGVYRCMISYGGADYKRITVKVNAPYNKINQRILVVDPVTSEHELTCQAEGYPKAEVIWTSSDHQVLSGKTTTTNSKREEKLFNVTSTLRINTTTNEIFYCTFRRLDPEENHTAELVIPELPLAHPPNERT
human PD-L1/Fc Fusion Protein (human), sequence (chain, as listed by the source limits assumed): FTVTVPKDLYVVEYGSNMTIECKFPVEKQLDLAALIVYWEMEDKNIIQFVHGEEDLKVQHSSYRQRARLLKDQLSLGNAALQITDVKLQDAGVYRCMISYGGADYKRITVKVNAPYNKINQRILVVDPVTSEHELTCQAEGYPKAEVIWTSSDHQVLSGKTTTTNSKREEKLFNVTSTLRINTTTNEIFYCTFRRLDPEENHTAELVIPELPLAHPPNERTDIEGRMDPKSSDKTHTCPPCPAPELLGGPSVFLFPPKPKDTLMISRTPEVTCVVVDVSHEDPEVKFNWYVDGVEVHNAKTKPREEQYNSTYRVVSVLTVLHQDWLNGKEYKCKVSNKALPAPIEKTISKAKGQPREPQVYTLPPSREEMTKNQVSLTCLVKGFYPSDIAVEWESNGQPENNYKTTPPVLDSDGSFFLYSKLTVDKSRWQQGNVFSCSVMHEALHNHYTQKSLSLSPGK
T2 sequence (G7PSE7 entry or part of it): as the sequence (Q9NZQ7 19-239 limits assumed) above, with A33T, A34S, S62N, R68Q, Q82R, F173L, T185A, T192I, H215L counted along it
T3 sequence (Q9NZQ7 19-290): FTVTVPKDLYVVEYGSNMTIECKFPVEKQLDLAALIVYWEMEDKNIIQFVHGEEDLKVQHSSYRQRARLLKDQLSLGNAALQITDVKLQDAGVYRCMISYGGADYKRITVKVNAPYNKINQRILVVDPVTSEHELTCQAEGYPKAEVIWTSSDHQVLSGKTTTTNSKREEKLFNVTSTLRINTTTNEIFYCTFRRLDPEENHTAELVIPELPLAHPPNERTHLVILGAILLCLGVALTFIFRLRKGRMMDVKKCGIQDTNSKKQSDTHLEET

B1: EM0005-mAb86c (antibody, human IgG1, kappa, V domains shown)
VH: QVQLQQSGAELVRPGSSVKMSCKTSGYTFTTYGINWVKQRPGQGLEWIGYIYIGNGYTEYNEKFKGKATLTSDPSSRTAYMQLSSLTSEDSAIYFCARDLMVIAPKTMDYWGQGTSVTVSS
VL: DIQMNQSHKFMSTSVGDRVSITCKASQDVGTAVAWYQQKPGQSPKLLIYWASTRHTGVPDRFTGGGSGTDFTLTISNVQSEDLADYFCQQYSSYPYTFGGGTKLEMKR
notes: Chimeric full-length IgG1; also called EM0005-86c; EM0005-86C
Consider B1, for which the EC50 in assay [1] came out at 0.14 nM; in assay [7], 0.1 nM; in [8] it was 0.22 nM. In addition, the koff in assay [2] turned out to be 0.00123 s⁻¹; in assay [3] it was 0.00179 s⁻¹; in assay [10], 0.00103 s⁻¹. For the same molecule, the “Off-Rate Ratio to that of EM0005-86c” value in assay [4], in [5] and in assay [12] was 100% in each case. Besides, the Kd worked out at 0.373 nM in assay [6] and 0.261 nM in assay [11]. In assay [9], this molecule gave an IC50 of 1.09 nM. Further, the “Inhibition (percent)” value in [9] was determined as 97.4%.
